Measurements taken from US20250011363A1, “OPTIMIZED SHORTENED PEPTIDE THAT BINDS TO ACETYLCHOLINE RECEPTOR, AND USE THEREOF” (SKINMED CO., LTD., priority 2021, published 2025).

molecular target: acetylcholine receptor (Homo sapiens, UniProt P02708); test: SPR binding affinity (RU) of optimized 5mer/6mer/7mer peptides, Examples 6-7; conditions: 6mer-1 Top sequence; SPR; peptides tested at 10 μM
Experimental: Based on the frequencies of occurrence of the top 7 amino acids from Table 7 in Example 5, 600 peptides comprising these amino acids (top combinations) and those comprising the 13 less frequently occurring amino acids (bottom combinations) were synthesized for each series of 5mer, 6mer-1, and 6mer-2. The binding affinity of each sequence for the acetylcholine receptor was measured using Surface Plasmon Resonance (SPR) analysis method. The peptides were tested at a concentration of 10 μM. Additionally, the average binding affinities of the top and bottom combinations in each series are depicted in FIGS. 5-7.
Representative peptides identified in Example 6, two in each library, including 5mers (73, 311) and 6mers-1 (43, 210) and 6mers-2 (136, 233), were compared with the pre-optimized 6mer, 5mer-ND, and Synake.

acetylcholine receptor, sequence (P02708 21-457): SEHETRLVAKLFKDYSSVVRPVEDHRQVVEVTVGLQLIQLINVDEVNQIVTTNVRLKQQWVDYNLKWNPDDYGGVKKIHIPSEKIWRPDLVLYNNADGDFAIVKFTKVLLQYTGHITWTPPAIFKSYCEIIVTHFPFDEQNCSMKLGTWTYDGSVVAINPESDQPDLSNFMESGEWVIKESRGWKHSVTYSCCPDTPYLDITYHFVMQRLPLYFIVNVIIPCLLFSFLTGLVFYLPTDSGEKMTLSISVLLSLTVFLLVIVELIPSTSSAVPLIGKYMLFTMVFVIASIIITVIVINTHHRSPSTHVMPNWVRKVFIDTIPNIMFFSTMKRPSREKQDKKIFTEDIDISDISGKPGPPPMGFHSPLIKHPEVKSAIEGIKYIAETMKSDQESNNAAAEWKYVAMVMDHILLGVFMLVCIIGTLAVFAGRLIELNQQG

| Substance | Binding affinity [Ru] |
| --- | --- |
| 6mer-1-375 (RRVFYR) | 154 |
| 6mer-1-340 (KRLLCK) | 142 |
| 6mer-1-316 (RKQIRK) | 145 |
| 6mer-1-219 (RRLFCR) | 121 |
| 6mer-1-260 (RKQRTK) | 141 |
| 6mer-1-367 (RKGFSK) | 154 |
| 6mer-1-323 (RRWLYR) | 149 |
| 6mer-1-212 (RRRICR) | 148 |
| 6mer-1-248 (RRLIYK) | 151 |
| 6mer-1-398 (KKQYYR) | 137 |

same assay, conditions: 6mer-2 Top sequence; SPR; peptides tested at 10 μM

| Substance | Binding affinity [Ru] |
| --- | --- |
| 6mer-2-88 (KSFQRR) | 141 |
| 6mer-2-124 (KWQLKR) | 126 |
| 6mer-2-158 (RSFLRR) | 145 |
| 6mer-2-85 (KSQYKR) | 137 |
| 6mer-2-41 (KQLCKR) | 142 |
| 6mer-2-83 (KQYQRR) | 135 |
| 6mer-2-183 (RLQLRR) | 154 |

same assay, conditions: SPR, Resonance Units; 5mer Bottom sequence (bottom combinations); peptides tested at 10 μM

| Substance | Binding affinity [Ru] |
| --- | --- |
| 5mer-626 (KICMR) | 12 |
| 5mer-754 (RKNER) | 29 |
| 5mer-1056 (RCTPK) | 11 |
| 5mer-1067 (KHENK) | 23 |
| 5mer-664 (KPTWR) | 17 |
| 5mer-1099 (RATAR) | 14 |
| 5mer-800 (KEAPR) | 29 |
| 5mer-1050 (KPEDR) | 31 |
| 5mer-967 (KKTHK) | 26 |
| 5mer-603 (RKEPK) | 27 |
| 5mer-682 (KPNVK) | 31 |
| 5mer-903 (RHHKR) | 21 |
| 5mer-1048 (KYDNK) | 12 |
| 5mer-668 (RPHAK) | 27 |
| 5mer-1017 (RCTWK) | 24 |
| 5mer-720 (KDPKR) | 32 |
| 5mer-902 (REDPK) | 23 |
| 5mer-763 (RCHVR) | 30 |
| 5mer-755 (KNWDR) | 15 |

same assay, conditions: SPR, Resonance Units; peptides tested at 10 μM; 6mer-1 Bottom sequence

| Substance | Binding affinity [Ru] |
| --- | --- |
| 6mer-1-1193 (KKPTNK) | 33 |
| 6mer-1-1013 (KKTTNK) | 29 |
| 6mer-1-1095 (RRCHVK) | 27 |
| 6mer-1-1122 (RRTMGR) | 33 |
| 6mer-1-1137 (KRFTDK) | 33 |
| 6mer-1-1038 (RRKKIR) | 21 |
| 6mer-1-1004 (RKHSHR) | 41 |

same assay, conditions: SPR, Resonance Units; peptides tested at 10 μM; 6mer-1 Bottom sequence (Table 11)

| Substance | Binding affinity [Ru] |
| --- | --- |
| 6mer-1-623 (RRTDWR) | 21 |
| 6mer-1-691 (RKPKAR) | 31 |
| 6mer-1-721 (RKAMEK) | 22 |
| 6mer-1-616 (KKNTIK) | 31 |
| 6mer-1-654 (KRMNDR) | 23 |
| 6mer-1-774 (KKEMER) | 21 |
| 6mer-1-619 (KKIDKR) | 23 |
| 6mer-1-650 (RRCNNR) | 18 |
| 6mer-1-767 (KRTPDK) | 18 |
| 6mer-1-752 (KRPTEK) | 16 |
| 6mer-1-777 (RRHNHR) | 16 |

same assay, conditions: SPR, Resonance Units; peptides tested at 10 μM; 6mer-2 Bottom sequence

| Substance | Binding affinity [Ru] |
| --- | --- |
| 6mer-2-609 (RDSDRR) | 24 |
| 6mer-2-920 (RMTIKK) | 26 |
| 6mer-2-698 (KCEDKK) | 27 |
| 6mer-2-975 (KKTMKK) | 38 |
| 6mer-2-888 (RIAKRK) | 17 |
| 6mer-2-723 (KEDMKR) | 23 |
| 6mer-2-652 (RTTMRK) | 16 |
| 6mer-2-992 (RMHFRR) | 33 |
| 6mer-2-820 (RPNNKK) | 24 |
| 6mer-2-987 (RCHPKK) | 22 |
| 6mer-2-649 (KFDVRK) | 31 |
| 6mer-2-657 (RKHERK) | 32 |
| 6mer-2-905 (RPKERR) | 26 |
| 6mer-2-914 (KDDIKK) | 25 |

same assay, conditions: SPR, Resonance Units; peptides tested at 10 μM; 6mer-2 Top sequence

| Substance | Binding affinity [Ru] |
| --- | --- |
| 6mer-2-521 (KQYTRK) | 144 |
| 6mer-2-596 (KGIQKK) | 153 |
| 6mer-2-472 (RSRLRR) | 148 |
| 6mer-2-576 (KGVSRR) | 139 |

same assay, conditions: SPR, Resonance Units; peptides tested at 10 μM; 6mer-2 Top sequence (Table 12)

| Substance | Binding affinity [Ru] |
| --- | --- |
| 6mer-2-229 (RWQSKK) | 127 |
| 6mer-2-247 (KGYQKK) | 146 |
| 6mer-2-246 (KWISKK) | 123 |
| 6mer-2-385 (RGVCKR) | 154 |

same assay, conditions: SPR, peptides at 10 μM; 6mer-2 Bottom sequence

| Substance | Binding affinity [Ru] |
| --- | --- |
| 6mer-2-1191 (KKADRK) | 35 |
| 6mer-2-1101 (RTKMRR) | 38 |
| 6mer-2-1033 (KMDEKK) | 28 |
| 6mer-2-1024 (RFHNKR) | 37 |
| 6mer-2-1080 (RKHKKK) | 23 |
| 6mer-2-1166 (KCSIKK) | 26 |

same assay, conditions: SPR, peptides tested at 10 μM; 5mer Top sequence

| Substance | Binding affinity [Ru] |
| --- | --- |
| 5mer-180 (KQRYR) | 74 |
| 5mer-25 (KVVYK) | 60 |
| 5mer-511 (KSLSR) | 56 |
| 5mer-505 (RQIYR) | 71 |
| 5mer-307 (KQRCK) | 82 |
| 5mer-32 (RQLSR) | 75 |
| 5mer-433 (KWRCR) | 73 |
| 5mer-47 (KGVRR) | 70 |
| 5mer-368 (KRIRR) | 50 |
| 5mer-127 (RWVTK) | 86 |
| 5mer-362 (KQRLK) | 62 |
| 5mer-137 (KGVSK) | 77 |
| 5mer-456 (RLVCK) | 52 |
| 5mer-440 (RQVTK) | 57 |
| 5mer-353 (KSQLK) | 59 |

same assay, conditions: SPR, peptides tested at 10 μM; 5mer Top sequence (top combinations)

| Substance | Binding affinity [Ru] |
| --- | --- |
| 5mer-279 (RVVTK) | 56 |
| 5mer-226 (RRYTR) | 60 |
| 5mer-514 (KLLLK) | 52 |
| 5mer-550 (RQQSR) | 83 |
| 5mer-532 (KQICK) | 75 |
| 5mer-230 (KVLCR) | 67 |
| 5mer-570 (KLVRR) | 56 |
| 5mer-259 (RLIRK) | 71 |
| 5mer-234 (RQYCR) | 62 |
| 5mer-252 (KQYRK) | 53 |

same assay, conditions: SPR, peptides tested at 10 μM; 6mer-1 Bottom sequence (Table 11)

| Substance | Binding affinity [Ru] |
| --- | --- |
| 6mer-1-978 (RRKSHK) | 43 |
| 6mer-1-913 (KRFWWK) | 27 |
| 6mer-1-853 (KRCNGR) | 30 |
| 6mer-1-921 (RKFWHR) | 36 |
| 6mer-1-996 (RRPPWK) | 39 |
| 6mer-1-935 (RKKDIK) | 40 |
| 6mer-1-843 (KKKTIK) | 28 |
| 6mer-1-821 (RRTTNR) | 22 |
| 6mer-1-966 (RRNSWK) | 22 |
| 6mer-1-925 (KKAMHR) | 42 |
| 6mer-1-944 (RKPAGK) | 25 |
| 6mer-1-824 (KKMNIK) | 12 |

same assay, conditions: SPR, peptides tested at 10 μM; 6mer-1 Top sequence

| Substance | Binding affinity [Ru] |
| --- | --- |
| 6mer-1-486 (KRQVRK) | 151 |
| 6mer-1-591 (KKRLYR) | 147 |
| 6mer-1-524 (KKGRQK) | 148 |
| 6mer-1-573 (KRVLLR) | 126 |

same assay, conditions: SPR, peptides tested at 10 μM; 6mer-1 Top sequence (top combinations)

| Substance | Binding affinity [Ru] |
| --- | --- |
| 6mer-1-2 (RKQILR) | 142 |
| 6mer-1-180 (RKLVRK) | 146 |
| 6mer-1-164 (KRGQYK) | 145 |
| 6mer-1-93 (KRWIRR) | 136 |
| 6mer-1-153 (KKWQQR) | 146 |
| 6mer-1-27 (KRSFTK) | 142 |
| 6mer-1-127 (KRVIYR) | 147 |

same assay, conditions: SPR; XRRGVRR-7mer and RRGVRRX-7mer

| Substance | Binding affinity, values relative to the RRGVRR sequence |
| --- | --- |
| 3648 (MRRGVRR) [compound 3648] | 124 |
| 3655 (QRRGVRR) [compound 3655] | 101 |
| 3651 (SRRGVRR) [compound 3651] | 117 |
| 3660 (ERRGVRR) [compound 3660] | 43 |

same assay, conditions: SPR; XRRQRR-6mer and RRQRRX-6mer

| Substance | Binding affinity, relative value to the RRQRR sequence |
| --- | --- |
| 3639 (RRQRRD) [compound 3639] | 65 |

same assay, conditions: SPR; peptides tested at 10 μM; 5mer Bottom sequence

| Substance | Binding affinity [Ru] |
| --- | --- |
| 5mer-1135 (RHTAR) | 17 |
| 5mer-815 (RKDHR) | 27 |
| 5mer-895 (RFTKK) | 18 |
| 5mer-1139 (KHCWK) | 28 |
| 5mer-1196 (RICIR) | 24 |
| 5mer-1134 (RTCKR) | 26 |
| 5mer-865 (RMMER) | 21 |
| 5mer-1157 (KTSHR) | 21 |
| 5mer-818 (KHWHR) | 12 |
